# Assay results as given in US20120184713A1, “Compositions and Methods for Modulation of Bone Density and Biomineralization” (priority 2011, published 2012).
# B1: D453G: FAM20C:V5 with a mutation in a conserved Asp residue (protein, UniProt Q5MJS3 88-579, looked up, variant D453G)
# Extracellular …: DFSSDPASNLTSHSLEKLPSAAEPVDHAPRGQEPRSPPPRDPAHRPLLRDPGPRPRVPPPGPSGDGSLLAKLFEHPLYQGAVPPLTEDDVLFNVNSDIRFNPKAAENPDWPHEGAEGAEFLPTGEAAVNLYPNWLKFHIGINRYELYSRHNPAIDALLRDLGSQKITSVAMKSGGTQLKLIMTFQNYGQALFKPMKQTREQETPPDFFYFSDYERHNAEIAAFHLDRILDFRRVPPVAGRMINMTKEIRDVTRDKKLWRTFFVSPANNICFYGECSYYCSTEHALCGRPDQIEGSLAAFLPDLSLAKRKTWRNPWRRSYHKRKKAEWEVDPDYCEEVKQTPPYDSGHRILDIMDMTVFDFLMGNMGRHHYETFEKFGNETFIIHLDNGRGFGKYSHDELSILAPLHQCCRIRRSTYLRLQLLAKEEHKLSLLMAESLQHDKVAPVLYQLHLEALDRRLRIVLQAVRDCVEKDGLSSVVEDDLATEHRASTER
# modifications: V5 tag
# notes: FAM20C:V5 with a mutation in a conserved Asp residue
# B2: G374E: recombinant mouse FAM20C:V5 carrying Raine syndrome patient mutation G374E (protein, UniProt Q5MJS3 88-579, looked up, variant G374E)
# Extracellular …: DFSSDPASNLTSHSLEKLPSAAEPVDHAPRGQEPRSPPPRDPAHRPLLRDPGPRPRVPPPGPSGDGSLLAKLFEHPLYQGAVPPLTEDDVLFNVNSDIRFNPKAAENPDWPHEGAEGAEFLPTGEAAVNLYPNWLKFHIGINRYELYSRHNPAIDALLRDLGSQKITSVAMKSGGTQLKLIMTFQNYGQALFKPMKQTREQETPPDFFYFSDYERHNAEIAAFHLDRILDFRRVPPVAGRMINMTKEIRDVTRDKKLWRTFFVSPANNICFYGECSYYCSTEHALCERPDQIEGSLAAFLPDLSLAKRKTWRNPWRRSYHKRKKAEWEVDPDYCEEVKQTPPYDSGHRILDIMDMTVFDFLMGNMDRHHYETFEKFGNETFIIHLDNGRGFGKYSHDELSILAPLHQCCRIRRSTYLRLQLLAKEEHKLSLLMAESLQHDKVAPVLYQLHLEALDRRLRIVLQAVRDCVEKDGLSSVVEDDLATEHRASTER
# modifications: V5 tag
# B3: G374R: recombinant mouse FAM20C:V5 carrying Raine syndrome patient mutation G374R (protein, UniProt Q5MJS3 88-579, looked up, variant G374R)
# Extracellular …: DFSSDPASNLTSHSLEKLPSAAEPVDHAPRGQEPRSPPPRDPAHRPLLRDPGPRPRVPPPGPSGDGSLLAKLFEHPLYQGAVPPLTEDDVLFNVNSDIRFNPKAAENPDWPHEGAEGAEFLPTGEAAVNLYPNWLKFHIGINRYELYSRHNPAIDALLRDLGSQKITSVAMKSGGTQLKLIMTFQNYGQALFKPMKQTREQETPPDFFYFSDYERHNAEIAAFHLDRILDFRRVPPVAGRMINMTKEIRDVTRDKKLWRTFFVSPANNICFYGECSYYCSTEHALCRRPDQIEGSLAAFLPDLSLAKRKTWRNPWRRSYHKRKKAEWEVDPDYCEEVKQTPPYDSGHRILDIMDMTVFDFLMGNMDRHHYETFEKFGNETFIIHLDNGRGFGKYSHDELSILAPLHQCCRIRRSTYLRLQLLAKEEHKLSLLMAESLQHDKVAPVLYQLHLEALDRRLRIVLQAVRDCVEKDGLSSVVEDDLATEHRASTER
# modifications: V5 tag
# B4: G261R: recombinant mouse FAM20C:V5 carrying Raine syndrome patient mutation G261R (protein, UniProt Q5MJS3 88-579, looked up, variant G261R)
# Extracellular …: DFSSDPASNLTSHSLEKLPSAAEPVDHAPRGQEPRSPPPRDPAHRPLLRDPGPRPRVPPPGPSGDGSLLAKLFEHPLYQGAVPPLTEDDVLFNVNSDIRFNPKAAENPDWPHEGAEGAEFLPTGEAAVNLYPNWLKFHIGINRYELYSRHNPAIDALLRDLGSQKITSVAMKSRGTQLKLIMTFQNYGQALFKPMKQTREQETPPDFFYFSDYERHNAEIAAFHLDRILDFRRVPPVAGRMINMTKEIRDVTRDKKLWRTFFVSPANNICFYGECSYYCSTEHALCGRPDQIEGSLAAFLPDLSLAKRKTWRNPWRRSYHKRKKAEWEVDPDYCEEVKQTPPYDSGHRILDIMDMTVFDFLMGNMDRHHYETFEKFGNETFIIHLDNGRGFGKYSHDELSILAPLHQCCRIRRSTYLRLQLLAKEEHKLSLLMAESLQHDKVAPVLYQLHLEALDRRLRIVLQAVRDCVEKDGLSSVVEDDLATEHRASTER
# modifications: V5 tag
# B5: 1241N: recombinant mouse FAM20C:V5 carrying Raine syndrome patient mutation 1241N (protein, UniProt Q5MJS3 88-579, looked up, variant I241N)
# Extracellular …: DFSSDPASNLTSHSLEKLPSAAEPVDHAPRGQEPRSPPPRDPAHRPLLRDPGPRPRVPPPGPSGDGSLLAKLFEHPLYQGAVPPLTEDDVLFNVNSDIRFNPKAAENPDWPHEGAEGAEFLPTGEAAVNLYPNWLKFHIGINRYELYSRHNPANDALLRDLGSQKITSVAMKSGGTQLKLIMTFQNYGQALFKPMKQTREQETPPDFFYFSDYERHNAEIAAFHLDRILDFRRVPPVAGRMINMTKEIRDVTRDKKLWRTFFVSPANNICFYGECSYYCSTEHALCGRPDQIEGSLAAFLPDLSLAKRKTWRNPWRRSYHKRKKAEWEVDPDYCEEVKQTPPYDSGHRILDIMDMTVFDFLMGNMDRHHYETFEKFGNETFIIHLDNGRGFGKYSHDELSILAPLHQCCRIRRSTYLRLQLLAKEEHKLSLLMAESLQHDKVAPVLYQLHLEALDRRLRIVLQAVRDCVEKDGLSSVVEDDLATEHRASTER
# modifications: V5 tag
# notes: recombinant mouse FAM20C:V5 carrying Raine syndrome patient mutation 1241N
# B6: DN473-474GG: FAM20C:V5 with a mutation in a motif predicted to bind metal ion cofactors (protein, UniProt Q5MJS3 88-579, looked up, variant D473G N474G)
# Extracellular …: DFSSDPASNLTSHSLEKLPSAAEPVDHAPRGQEPRSPPPRDPAHRPLLRDPGPRPRVPPPGPSGDGSLLAKLFEHPLYQGAVPPLTEDDVLFNVNSDIRFNPKAAENPDWPHEGAEGAEFLPTGEAAVNLYPNWLKFHIGINRYELYSRHNPAIDALLRDLGSQKITSVAMKSGGTQLKLIMTFQNYGQALFKPMKQTREQETPPDFFYFSDYERHNAEIAAFHLDRILDFRRVPPVAGRMINMTKEIRDVTRDKKLWRTFFVSPANNICFYGECSYYCSTEHALCGRPDQIEGSLAAFLPDLSLAKRKTWRNPWRRSYHKRKKAEWEVDPDYCEEVKQTPPYDSGHRILDIMDMTVFDFLMGNMDRHHYETFEKFGNETFIIHLGGGRGFGKYSHDELSILAPLHQCCRIRRSTYLRLQLLAKEEHKLSLLMAESLQHDKVAPVLYQLHLEALDRRLRIVLQAVRDCVEKDGLSSVVEDDLATEHRASTER
# modifications: V5 tag
# Tested on: OPN-ASARM peptide
# Test: Kinase assays of FAM20C mutant proteins
# Format: biochemical, human
# Details: recombinant mouse FAM20C:V5 mutants; for the mutants OPN-ASARM peptide (1) as substrate, FIG. 8f
# Protocol: Site-specific mutagenesis was performed by PCR essentially as described^26, by using primers […] and […] (SEQ ID NO: 25) (FAM20C^GG), […] (SEQ ID NO: 26) and […] (FAM20C^D453G) (SEQ ID NO: 27), […] (SEQ ID NO: 28) and […] (FAM20C^G374R) (SEQ ID NO: 29), […] and […] (FAM20C^G374E) (SEQ ID NO: 30), […] (SEQ ID NO: 31) and […] (FAM20C^E383R) (SEQ ID NO: 32), […] (SEQ ID NO: 33) and […] (FAM20C^R544W) (SEQ ID NO: 34), […] (SEQ ID NO: 35) and […] (FAM20C^1241N)(SEQ ID NO: 36), […] (SEQ ID NO: 37) and […] (FAM20C^G261R) (SEQ ID NO: 38), […] (SEQ ID NO: 39) and […] (FAM20C^D446N) (SEQ ID NO:40). All mutations were confirmed by DNA sequencing.
# FAM20C kinase assay with peptides substrates were performed in 10 μl reactions, with 500 μM ATP, including 3 μCi (0.05 μM) of [gamma-^32P]ATP (6000 Ci/mmol, PerkinElmer), 50 mM Tris (pH 7.0), 10 mM MnCl2, 0.1% BSA, purified FAM20C:V5 and peptides. Casein Kinase I (500 units, NEB) was used as a control kinase. mutant versions (5 ng, […]), and peptides (2.5 μg, 1 nmol as a standard condition. 250 ng, […] in FAM20C mutants). Reactions were stopped by adding 1.5 μl 0.1N—HCl, and one half of the reaction volume was pipetted on to P81 phospho-cellulose filter paper^27. The filter papers were washed with 0.5% phosphoric acid and subjected to liquid scintillation counting.
row,Molecule,kinase activity of FAM20C mutant isoform
1,B1,abolished catalytic activity
2,B2,no detectable kinase activity
3,B3,no detectable kinase activity
4,B4,diminished kinase activity
5,B5,no detectable kinase activity
6,B6,abolished catalytic activity
